Laboratory results from article PMC12597263.

Target: T1, recombinant human (rh) BMP2 (human) (UniProt P12643)
T1 sequence: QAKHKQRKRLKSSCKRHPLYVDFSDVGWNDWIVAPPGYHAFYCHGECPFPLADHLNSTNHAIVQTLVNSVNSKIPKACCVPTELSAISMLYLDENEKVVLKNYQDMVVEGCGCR

B1: GREM1^WT-mCherry (human Gremlin1 fused to mCherry) (natural protein)
chain: KKKGSQGAIPPPDKAQHNDSEQTQSPQQPGSRNRGRGQGRGTAMPGEEVLESSQEALHVTERKYLKRDWCKTQPLKQTIHEEGCNSRTIINRFCYGQCNSFYIPRHIRKEEGSFQSCSFCKPKKFTTMMVTLNCPELQPPTKKKRVTRVKQCRCISIDLD
  GREM1-mCherry uptake into HCT116 cells (integrated mCherry fluorescence per cell) from conditioned medium with 200 ng/ml BMP2 versus vehicle, overnight (16 h): 5 fold
